Patent publication US20200362021A1 (PHANES THERAPEUTICS, published 2020)

B1: humanized anti-apelin mAb A31 (human IgG1 backbone) (antibody, V domains shown)
VH: QSLEESGGGLVQPGGSLRLSCAVSGIDLYSNRMSWVRQAPGKGLEWVGSIGSSPWYASWAQGRFTISRDNSNTVYLQMNSLTAEDTATYFCAKGGYRPGASVWGQGTLVTVSS
VL: DIQLTQSPSSLSASVGDRVTITCQSSQSIYDNNDLAWYQQKPGKTPKRLIYLASSLDSGVPSRFSGSGSGTDFTLTISSLQPEDVATYYCAGGYSGDIYTFGGGTKVEIK
notes: humanized from C8; tested as HEK293 supernatant
B2: humanized anti-apelin mAb A31 (human IgG4 backbone) (antibody, V domains shown)
VH: QSLEESGGGLVQPGGSLRLSCAVSGIDLYSNRMSWVRQAPGKGLEWVGSIGSSPWYASWAQGRFTISRDNSNTVYLQMNSLTAEDTATYFCAKGGYRPGASVWGQGTLVTVSS
VL: DIQLTQSPSSLSASVGDRVTITCQSSQSIYDNNDLAWYQQKPGKTPKRLIYLASSLDSGVPSRFSGSGSGTDFTLTISSLQPEDVATYYCAGGYSGDIYTFGGGTKVEIK
B3: humanized anti-apelin mAb B24 (human IgG4 backbone) (antibody, V domains shown)
VH: QSLEESGGGLVQPGGSLRLSCTVSGIDLYTNRVSWVRQAPGKGLEWVGSIGSSPWYASWAQGRFTISRDNSNTVYLKMNSPTAEDTATYFCAKGGYRPGGSIWGQGTLVTVSS
VL: DIQLTQSPSSLSASVGDRVTITCQSSQSIYDNNDLGWYQQKPGKTPKRLIYLASSLDSGVPSRFSGSGSGTDFTLTISSLQPEDVATYYCAGGYSGDIYTFGGGTKVEIK
B4: humanized anti-apelin mAb B25 (human IgG4 backbone) (antibody, V domains shown)
VH: QSLEESGGGLVQPGGSLRLSCTVSGIDLYTNRMSWVRQAPGKGLEWVGSIGSSPWFASWALGRFTISRDNSNTVYLKMNSPTAEDTATYFCAKGGYRPGASVWGQGTLVTVSS
VL: DIQLTQSPSSLSASVGDRVTITCQSSQSIYDNNDLAWYQQKPGKTPKRLIYLASSLDSGVPSRFSGSGSGTDFTLTISSLQPEDVATYYCAGGYNGDIYTFGGGTKVEIK
B5: anti-apelin mAb C8 (antibody, V domains shown)
VH: QSVEESGGRLVTPGTPLTLTCTVSGIDLYSNRMSWVRQAPGKGLEWIGSIGSSPWYASWAQGRFTISKTSSTTVNLKITSPTTEDTATYFCAKGGYRPGASVWGPGTLVTVSS
VL: QVLTQTESPVSAPVGGTVTIACQSSQSVYDNNDLAWYQQKAGQTPKRLIYLASSLDSGVPSRFKGSGSGTEFTLTISDLECDDAATYYCAGGYSGDIYTFGGGTEVVVE
notes: recombinant rabbit IgG made in HEK293 cells
B6: anti-apelin mAb C25 (antibody, V domains shown)
VH: QSLEESGGGLVTPGTPLTLTCTVSGIDLYTNRMSWVRQAPGKGLEWIGSIGSSPWFASWALGRFTISKTSTTVNLKITSPTTEDTATYFCAKGGYRPGASVWGPGTLVTVSS
VL: QVLTQTESPVSAPVGGTVTIACQSSQSVYDNNDLAWYQQKAGQTPKRLIFLASSLDSGVPSRFKGSGSGTEFTLTISDLECDDAATYYCAGGYNGDIYTFGGGTEVVVK
notes: as for B5
B7: anti-apelin mAb C24 (antibody, V domains shown)
VH: QSLEESGGRLVTPGTPLTLTCTVSGIDLYTNRVSWVRQAPGKGLDWIGSIGSSPWYASWAQGRFTISKTSTTVNLKITSSTTEDTATYFCAKGGYRPGGSIWGPGTLVTVSS
VL: QVLTQSASPVSAAVGDSVTIACQSSQSVYDNNDLGWYQQKPGQTPKRLIYLASSLDSGVPSRFSGSGSGTQFTLTISDLECDDAATYYCAGGYSGDIYTFGGGTEVVVK
notes: as for B5

Legend:
[1] = biological target: T1, pyro-apelin 13 (N-terminal pyroglutamate); assay: cell-based or functional assay
T1 peptide: ERPRLSHKGPMPF

[2] = biological target: apelin 13 (competition peptide 1-13, …); assay: cell-based or functional assay
[3] = biological target: T2, biotin-apelin-13 (biotin-…) (N-terminal biotin); assay: SPR (Biacore) with biotin-apelin-13, humanized IgG1 mAb in HEK293 supernatant
T2 construct: also called Biotin-APL13
Description: The rabbit anti-apelin mAb C8 was humanized to reduce the potential of immunogenicity when used in human patients. The sequences of the variable regions of the heavy and light chains (VH and VL) were compared with the human antibody sequences in the Protein Data Bank (PDB) database and a homology model was built by applying SWISS-modeling. The CDRs in both the heavy and light chains of the rabbit mAb were grafted into human frameworks that have the highest possibility of maintaining the proper structure likely required for antigen binding. Backmutations from human residue to rabbit residue were designed when necessary. The sequences of the humanized VH and VL regions are shown in Table 11 and Table 12, respectively. The humanized VH and VL regions were fused to human IgG1 heavy chain and kappa light chain constant regions, respectively, to generate humanized mAbs. Constructs corresponding to the mAb sequences were used for transient transfection in HEK 293 cells and the supernatants were analyzed for the affinity of each humanized mAb for apelin.

[4] = biological target: T2, biotin-apelin-13 (biotin-…); assay: ELISA, increasing concentrations of IgG4 mAb immobilized on plate, biotin-apelin-13 added, streptavidin-AP detection
Description: Two additional humanized mAbs (B24 and B25) were generated with sequence modifications on A31. […] The binding was then detected by adding PNPP substrate and reading absorbance of the ELISA plates at 405 nm.

[5] = biological target: T2, biotin-apelin-13 (biotin-…); assay: SPR (Biacore), biotin-apelin-13 on streptavidin CM5 chip, mAb at 12.5-100 nM
Description: Anti-apelin mAbs at four different concentrations (12.5 nM, 25 nM, 50 nM and 100 nM) were captured on the chip surface. The on- and off-rate for antibody-antigen binding were measured, curve fitted and calculated.

[6] = biological target: alanine scanning peptide 9A (KAPMPF); assay: competition ELISA, captured mAb, peptide competes with biotin-apelin-13, A405
Description: (§1) Goat anti-rabbit IgG was immobilized on an ELISA plate. […] Several competition peptides were used as controls.
(§2) For the peptide competition assay, goat anti-rabbit IgG in carbonate coating buffer was coated on high binding ELISA plates at 1 μg/ml overnight. […] After incubation at room temperature for 60 minutes, the plates were washed and then streptavidin-conjugated to alkaline phosphatase was added, and the binding was detected by adding PNPP substrate and reading absorbance of ELISA plates at 405 nm. Each competition peptide or control sample was assayed in duplicate for a given mAb. […] “No comp:” no competition peptide was added; “No Ab, No Comp:” neither competition peptide nor anti-apelin mAb was added.

[7] = biological target: alanine scanning peptide 8A (AGPMPF); assay: as above
Description: as §1, §2

[8] = biological target: T3, alanine scanning peptide 10A (KGAMPF); assay: as above
T3 peptide: KGAMPF
Description: as §1, §2

[9] = biological target: T4, apelin peptide 2-13 (RPRLSHKGPMPF); assay: as above
T4 peptide: RPRLSHKGPMPF
Description: as §1, §2

[10] = biological target: T5, apelin peptide 4-13 (RLSHKGPMPF); assay: as above
T5 peptide: RLSHKGPMPF
Description: (§3) Goat-anti-rabbit IgG was immobilized on an ELISA plate.
(§4) The antibody binding sites for anti-apelin mAbs C8, C24, and C25 were mapped using an ELISA-based peptide competition assay. […] Each of the competition peptides (Table 7) was assessed for its ability to inhibit biotin-apelin-13 binding to the mAb. An inhibition signal reflects the ability of the competition peptide to bind to the mAb in solution.
as §2

[11] = biological target: T6, 10-13; assay: as above
T6 construct: also called apelin peptide 10-13 (PMPF)
T6 peptide: PMPF
Description: as §3, §4, §2

[12] = biological target: T7, apelin peptide 8-13 (KGPMPF); assay: as above
T7 peptide: KGPMPF
Description: as §3, §4, §2

[13] = biological target: T8, apelin peptide 3-13 (PRLSHKGPMPF); assay: as above
T8 peptide: PRLSHKGPMPF
Description: as §3, §4, §2

[14] = biological target: T9, apelin peptide 5-13 (LSHKGPMPF); assay: as above
T9 peptide: LSHKGPMPF
Description: as §3, §4, §2

[15] = biological target: T10, 9-13; assay: as above
T10 construct: also called apelin peptide 9-13 (GPMPF)
T10 peptide: GPMPF
Description: as §3, §4, §2

[16] = biological target: T11, apelin peptide 1-12 (QRPRLSHKGPMP); assay: as above
T11 peptide: QRPRLSHKGPMP
Description: as §3, §4, §2

[17] = biological target: T12, apelin peptide 7-13 (HKGPMPF); assay: as above
T12 peptide: HKGPMPF
Description: as §3, §4, §2

[18] = biological target: T13, apelin peptide 6-13 (SHKGPMPF); assay: as above
T13 peptide: SHKGPMPF
Description: as §3, §4, §2

[19] = biological target: T14, alanine scanning peptide 13A (KGPMPA); assay: as above
T14 peptide: KGPMPA
Description: as §1, §2

Row | Binder | IC50 [1] [pM] | IC50 [2] [pM] | Kd [3] [pM] | EC50 [4] [pM] | Kd [5] [pM] | binding result [6] | binding result [7] | binding result [8] | binding result [9] | binding result [10] | binding result [11] | binding result [12] | binding result [13] | binding result [14] | binding result [15] | binding result [16] | binding result [17] | binding result [18] | binding result [19]
1 | B1 | 19900 | 25000 | 0.148 | – | – | – | – | – | – | – | – | – | – | – | – | – | – | – | –
2 | B2 | – | – | – | 210 | – | – | – | – | – | – | – | – | – | – | – | – | – | – | –
3 | B3 | – | – | – | 790 | – | – | – | – | – | – | – | – | – | – | – | – | – | – | –
4 | B4 | – | – | – | 470 | – | – | – | – | – | – | – | – | – | – | – | – | – | – | –
5 | B5 | – | – | – | – | 17.4 | binds | binds | binds | binds | binds | binds | binds | binds | binds | binds | no binding (tested: peptide concentration not stated) | binds | binds | –
6 | B6 | – | – | – | – | 50.8 | binds | binds | binds | binds | binds | binds | binds | binds | binds | binds | no binding (tested: peptide concentration not stated) | binds | binds | no binding (tested: peptide concentration not stated)
7 | B7 | – | – | – | – | 0.401 | binds | binds | binds | binds | binds | binds | binds | binds | binds | binds | no binding (tested: peptide concentration not stated) | binds | binds | no binding (tested: peptide concentration not stated)
